According to PMC6827878 (Cell, 2018):

Biological target: Recombinant PP4R3β (His tagged SMEK2) (UniProt Q5MIZ7 1-849)
Assay: ITC

Sequence of Recombinant PP4R3β (His tagged SMEK2) (Q5MIZ7 whole entry): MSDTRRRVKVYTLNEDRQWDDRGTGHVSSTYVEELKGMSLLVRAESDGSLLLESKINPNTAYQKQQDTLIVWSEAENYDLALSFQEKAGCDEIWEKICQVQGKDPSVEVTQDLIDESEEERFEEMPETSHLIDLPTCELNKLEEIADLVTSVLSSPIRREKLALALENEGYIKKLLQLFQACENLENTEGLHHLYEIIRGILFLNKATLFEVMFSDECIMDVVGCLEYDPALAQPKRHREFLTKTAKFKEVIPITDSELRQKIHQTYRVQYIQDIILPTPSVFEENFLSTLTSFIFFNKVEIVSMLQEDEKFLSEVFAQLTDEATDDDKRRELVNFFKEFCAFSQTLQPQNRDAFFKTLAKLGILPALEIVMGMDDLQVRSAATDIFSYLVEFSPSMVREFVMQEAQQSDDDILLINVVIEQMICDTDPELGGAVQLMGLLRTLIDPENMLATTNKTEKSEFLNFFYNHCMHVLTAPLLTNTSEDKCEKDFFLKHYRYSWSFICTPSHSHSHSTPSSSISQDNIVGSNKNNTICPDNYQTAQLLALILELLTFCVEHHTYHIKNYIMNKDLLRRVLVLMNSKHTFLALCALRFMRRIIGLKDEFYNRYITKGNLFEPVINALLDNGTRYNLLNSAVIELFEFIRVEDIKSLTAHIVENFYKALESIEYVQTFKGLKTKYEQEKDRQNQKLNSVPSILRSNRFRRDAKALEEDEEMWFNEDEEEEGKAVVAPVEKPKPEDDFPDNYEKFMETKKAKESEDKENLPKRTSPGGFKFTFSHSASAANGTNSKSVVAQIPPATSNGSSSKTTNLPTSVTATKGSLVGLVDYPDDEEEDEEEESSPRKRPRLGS

B1: GST-CT45A1 (natural protein, human, UniProt Q5HYN5 1-189, looked up)
chain: MTDKTEKVAVDPETVFKRPRECDSPSYQKRQRMALLARKQGAGDSLIAGSAMSKAKKLMTGHAIPPSQLDSQIDDFTGFSKDRMMQKPGSNAPVGGNVTSSFSGDDLECRETASSPKSQREINADIKRKLVKELRCVGQKYEKIFEMLEGVQGPTAVRKRFFESIIKEAARCMRRDFVKHLKKKLKRMI
  Kd: 370 ± 30 nM
